Laboratory results as given in publication PMC3494860 (The Journal of Cell Biology, 2012).

Biological target: T1, GST-PATJ (Drosophila melanogaster, UniProt Q9NB04 1-871)
T1 sequence (looked up): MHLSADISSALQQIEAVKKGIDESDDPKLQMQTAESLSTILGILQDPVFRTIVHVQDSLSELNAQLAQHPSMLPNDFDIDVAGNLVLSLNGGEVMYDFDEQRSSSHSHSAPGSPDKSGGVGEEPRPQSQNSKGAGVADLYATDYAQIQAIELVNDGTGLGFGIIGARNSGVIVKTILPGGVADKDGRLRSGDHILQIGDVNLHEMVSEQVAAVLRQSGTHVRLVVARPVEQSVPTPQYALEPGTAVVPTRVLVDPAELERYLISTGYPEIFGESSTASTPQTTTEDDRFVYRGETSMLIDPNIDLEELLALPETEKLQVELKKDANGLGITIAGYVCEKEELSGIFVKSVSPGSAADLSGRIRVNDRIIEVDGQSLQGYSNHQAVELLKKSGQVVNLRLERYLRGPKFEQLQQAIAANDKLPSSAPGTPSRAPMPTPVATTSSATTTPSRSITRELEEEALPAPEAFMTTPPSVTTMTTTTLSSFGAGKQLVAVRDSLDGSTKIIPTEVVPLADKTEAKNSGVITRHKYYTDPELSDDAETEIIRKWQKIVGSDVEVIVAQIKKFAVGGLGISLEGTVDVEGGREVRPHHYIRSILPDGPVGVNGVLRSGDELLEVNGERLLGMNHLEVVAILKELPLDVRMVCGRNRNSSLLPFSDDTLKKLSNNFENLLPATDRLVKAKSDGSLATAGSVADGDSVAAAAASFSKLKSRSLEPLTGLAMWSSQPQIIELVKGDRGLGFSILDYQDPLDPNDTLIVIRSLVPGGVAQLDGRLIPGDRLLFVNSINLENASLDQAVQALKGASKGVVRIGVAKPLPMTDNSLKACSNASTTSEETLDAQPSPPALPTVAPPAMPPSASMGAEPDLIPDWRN
Assay: pull-down

B1: MBP-Sqh (natural protein, Drosophila melanogaster, UniProt P40423 1-174, looked up)
chain: MSSRKTAGRRATTKKRAQRATSNVFAMFDQAQIAEFKEAFNMIDQNRDGFVEKEDLHDMLASLGKNPTDDYLDGMMNEAPGPINFTMFLTLFGERLQGTDPEDVIKNAFGCFDEENMGVLPEDRLRELLTTMGDRFTDEDVDEMYREAPIKNGLFDYLEFTRILKHGAKDKDEQ
binding result: binds
